Test results published in IntAct's records for PubMed 10659709.

B1: Regulatory protein NPR1 (Arabidopsis thaliana (Mouse-ear cress)), P93002 (parent)
chain: MDTTIDGFADSYEISSTSFVATDNTDSSIVYLAAEQVLTGPDVSALQLLSNSFESVFDSPDDFYSDAKLVLSDGREVSFHRCVLSARSSFFKSALAAAKKEKDSNNTAAVKLELKEIAKDYEVGFDSVVTVLAYVYSSRVRPPPKGVSECADENCCHVACRPAVDFMLEVLYLAFIFKIPELITLYQRHLLDVVDKVVIEDTLVILKLANICGKACMKLLDRCKEIIVKSNVDMVSLEKSLPEELVKEIIDRRKELGLEVPKVKKHVSNVHKALDSDDIELVKLLLKEDHTNLDDACALHFAVAYCNVKTATDLLKLDLADVNHRNPRGYTVLHVAAMRKEPQLILSLLEKGASASEATLEGRTALMIAKQATMAVECNNIPEQCKHSLKGRLCVEILEQEDKREQIPRDVPPSFAVAADELKMTLLDLENRVALAQRLFPTEAQAAMEIAEMKGTCEFIVTSLEPDRLTGTKRTSPGVKIAPFRILEEHQSRLKALSKTVELGKRFFPRCSAVLDQIMNCEDLTQLACGEDDTAEKRLQKKQRYMEIQETLKKAFSEDNLELGNSSLTDSTSSTSKSTGGKRSNRKLSHRRR
partner: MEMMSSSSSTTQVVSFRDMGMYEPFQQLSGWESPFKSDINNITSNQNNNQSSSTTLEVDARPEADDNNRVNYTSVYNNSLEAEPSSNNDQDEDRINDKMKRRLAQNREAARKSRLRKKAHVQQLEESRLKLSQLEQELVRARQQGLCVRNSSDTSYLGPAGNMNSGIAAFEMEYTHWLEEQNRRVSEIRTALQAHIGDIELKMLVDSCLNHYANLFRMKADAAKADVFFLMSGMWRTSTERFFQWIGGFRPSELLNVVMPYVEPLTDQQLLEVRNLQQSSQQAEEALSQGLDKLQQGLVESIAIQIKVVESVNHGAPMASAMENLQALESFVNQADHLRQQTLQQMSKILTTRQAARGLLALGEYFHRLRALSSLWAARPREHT
B2: Regulatory protein NPR1 (Arabidopsis thaliana (Mouse-ear cress)), P93002 (parent)
chain: B1 chain
partner: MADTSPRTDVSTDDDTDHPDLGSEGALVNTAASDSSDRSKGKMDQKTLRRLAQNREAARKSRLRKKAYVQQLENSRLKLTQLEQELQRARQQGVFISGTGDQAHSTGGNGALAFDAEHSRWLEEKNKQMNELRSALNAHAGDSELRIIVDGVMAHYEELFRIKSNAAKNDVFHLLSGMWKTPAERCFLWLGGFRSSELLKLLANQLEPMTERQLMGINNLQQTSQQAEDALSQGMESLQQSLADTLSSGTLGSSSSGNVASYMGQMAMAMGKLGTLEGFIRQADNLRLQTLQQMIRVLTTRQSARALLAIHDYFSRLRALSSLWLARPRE

Variants of: B1
Conditions: with tga3_arath TGA3, Q39234

Row | Variant | effect of a mutation on the interaction
1 | MDTTIDGFADSYEISSTSFVATDNTDSSIVYLAAEQVLTGPDVSALQLLSNSFESVFDSPDDFYSDAKLVLSDGREVSFHRCVLSARSSFFKSALAAAKKEKDSNNTAAVKLELKEIAKDYEVGFDSVVTVLAYVYSSRVRPPPKGVSECADENCCHVACRPAVDFMLEVLYLAFIFKIPELITLYQRHLLDVVDKVVIEDTLVILKLANICGKACMKLLDRCKEIIVKSNVDMVSLEKSLPEELVKEIIDRRKELGLEVPKVKKHVSNVHKALDSDDIELVKLLLKEDHTNLDDACALHFAVAYCNVKTATDLLKLDLADVNHRNPRGYTVLHVAAMRKESQLILSLLEKGASASEATLEGRTALMIAKQATMAVECNNIPEQCKHSLKGRLCVEILEQEDKREQIPRDVPPSFAVAADELKMTLLDLENRVALAQRLFPTEAQAAMEIAEMKGTCEFIVTSLEPDRLTGTKRTSPGVKIAPFRILEEHQSRLKALSKTVELGKRFFPRCSAVLDQIMNCEDLTQLACGEDDTAEKRLQKKQRYMEIQETLKKAFSEDNLELGNSSLTDSTSSTSKSTGGKRSNRKLSHRRR [P342S] | decreasing interaction strength
2 | MDTTIDGFADSYEISSTSFVATDNTDSSIVYLAAEQVLTGPDVSALQLLSNSFESVFDSPDDFYSDAKLVLSDGREVSFHRCVLSARSSFFKSALAAAKKEKDSNNTAAVKLELKEIAKDYEVGFDSVVTVLAYVYSSRVRPPPKGVSECADENCCHVACRPAVDFMLEVLYLAFIFKIPELITLYQRHLLDVVDKVVIEDTLVILKLANICGKACMKLLDRCKEIIVKSNVDMVSLEKSLPEELVKEIIDRRKELGLEVPKVKKHVSNVHKALDSDDIELVKLLLKEDHTNLDDACALYFAVAYCNVKTATDLLKLDLADVNHRNPRGYTVLHVAAMRKEPQLILSLLEKGASASEATLEGRTALMIAKQATMAVECNNIPEQCKHSLKGRLCVEILEQEDKREQIPRDVPPSFAVAADELKMTLLDLENRVALAQRLFPTEAQAAMEIAEMKGTCEFIVTSLEPDRLTGTKRTSPGVKIAPFRILEEHQSRLKALSKTVELGKRFFPRCSAVLDQIMNCEDLTQLACGEDDTAEKRLQKKQRYMEIQETLKKAFSEDNLELGNSSLTDSTSSTSKSTGGKRSNRKLSHRRR [H300Y] | decreasing interaction strength
3 | MDTTIDGFADSYEISSTSFVATDNTDSSIVYLAAEQVLTGPDVSALQLLSNSFESVFDSPDDFYSDAKLVLSDGREVSFHRCVLSARSSFFKSALAAAKKEKDSNNTAAVKLELKEIAKDYEVGFDSVVTVLAYVYSSRVRPPPKGVSEYADENCCHVACRPAVDFMLEVLYLAFIFKIPELITLYQRHLLDVVDKVVIEDTLVILKLANICGKACMKLLDRCKEIIVKSNVDMVSLEKSLPEELVKEIIDRRKELGLEVPKVKKHVSNVHKALDSDDIELVKLLLKEDHTNLDDACALHFAVAYCNVKTATDLLKLDLADVNHRNPRGYTVLHVAAMRKEPQLILSLLEKGASASEATLEGRTALMIAKQATMAVECNNIPEQCKHSLKGRLCVEILEQEDKREQIPRDVPPSFAVAADELKMTLLDLENRVALAQRLFPTEAQAAMEIAEMKGTCEFIVTSLEPDRLTGTKRTSPGVKIAPFRILEEHQSRLKALSKTVELGKRFFPRCSAVLDQIMNCEDLTQLACGEDDTAEKRLQKKQRYMEIQETLKKAFSEDNLELGNSSLTDSTSSTSKSTGGKRSNRKLSHRRR [C150Y] | decreasing interaction strength
4 | MDTTIDGFADSYEISSTSFVATDNTDSSIVYLAAEQVLTGPDVSALQLLSNSFESVFDSPDDFYSDAKLVLSDGREVSFHRCVLSARSSFFKSALAAAKKEKDSNNTAAVKLELKEIAKDYEVGFDSVVTVLAYVYSSRVRPPPKGVSECADENCCHVACRPAVDFMLEVLYLAFIFKIPELITLYQRHLLDVVDKVVIEDTLVILKLANICGKACMKLLDRCKEIIVKSNVDMVSLEKSLPEELVKEIIDRRKELGLEVPKVKKHVSNVHKALDSDDIELVKLLLKEDHTNLDDACALHFAVAYCNVKTATDLLKLDLADVNHRNPRGYTVLYVAAMRKEPQLILSLLEKGASASEATLEGRTALMIAKQATMAVECNNIPEQCKHSLKGRLCVEILEQEDKREQIPRDVPPSFAVAADELKMTLLDLENRVALAQRLFPTEAQAAMEIAEMKGTCEFIVTSLEPDRLTGTKRTSPGVKIAPFRILEEHQSRLKALSKTVELGKRFFPRCSAVLDQIMNCEDLTQLACGEDDTAEKRLQKKQRYMEIQETLKKAFSEDNLELGNSSLTDSTSSTSKSTGGKRSNRKLSHRRR [H334Y] | decreasing interaction strength

Variants of: B2
Conditions: with tga2_arath TGA2, P43273

Row | Variant | effect of a mutation on the interaction
5 | MDTTIDGFADSYEISSTSFVATDNTDSSIVYLAAEQVLTGPDVSALQLLSNSFESVFDSPDDFYSDAKLVLSDGREVSFHRCVLSARSSFFKSALAAAKKEKDSNNTAAVKLELKEIAKDYEVGFDSVVTVLAYVYSSRVRPPPKGVSECADENCCHVACRPAVDFMLEVLYLAFIFKIPELITLYQRHLLDVVDKVVIEDTLVILKLANICGKACMKLLDRCKEIIVKSNVDMVSLEKSLPEELVKEIIDRRKELGLEVPKVKKHVSNVHKALDSDDIELVKLLLKEDHTNLDDACALHFAVAYCNVKTATDLLKLDLADVNHRNPRGYTVLHVAAMRKESQLILSLLEKGASASEATLEGRTALMIAKQATMAVECNNIPEQCKHSLKGRLCVEILEQEDKREQIPRDVPPSFAVAADELKMTLLDLENRVALAQRLFPTEAQAAMEIAEMKGTCEFIVTSLEPDRLTGTKRTSPGVKIAPFRILEEHQSRLKALSKTVELGKRFFPRCSAVLDQIMNCEDLTQLACGEDDTAEKRLQKKQRYMEIQETLKKAFSEDNLELGNSSLTDSTSSTSKSTGGKRSNRKLSHRRR [P342S] | disrupting interaction
6 | MDTTIDGFADSYEISSTSFVATDNTDSSIVYLAAEQVLTGPDVSALQLLSNSFESVFDSPDDFYSDAKLVLSDGREVSFHRCVLSARSSFFKSALAAAKKEKDSNNTAAVKLELKEIAKDYEVGFDSVVTVLAYVYSSRVRPPPKGVSECADENCCHVACRPAVDFMLEVLYLAFIFKIPELITLYQRHLLDVVDKVVIEDTLVILKLANICGKACMKLLDRCKEIIVKSNVDMVSLEKSLPEELVKEIIDRRKELGLEVPKVKKHVSNVHKALDSDDIELVKLLLKEDHTNLDDACALYFAVAYCNVKTATDLLKLDLADVNHRNPRGYTVLHVAAMRKEPQLILSLLEKGASASEATLEGRTALMIAKQATMAVECNNIPEQCKHSLKGRLCVEILEQEDKREQIPRDVPPSFAVAADELKMTLLDLENRVALAQRLFPTEAQAAMEIAEMKGTCEFIVTSLEPDRLTGTKRTSPGVKIAPFRILEEHQSRLKALSKTVELGKRFFPRCSAVLDQIMNCEDLTQLACGEDDTAEKRLQKKQRYMEIQETLKKAFSEDNLELGNSSLTDSTSSTSKSTGGKRSNRKLSHRRR [H300Y] | disrupting interaction
7 | MDTTIDGFADSYEISSTSFVATDNTDSSIVYLAAEQVLTGPDVSALQLLSNSFESVFDSPDDFYSDAKLVLSDGREVSFHRCVLSARSSFFKSALAAAKKEKDSNNTAAVKLELKEIAKDYEVGFDSVVTVLAYVYSSRVRPPPKGVSEYADENCCHVACRPAVDFMLEVLYLAFIFKIPELITLYQRHLLDVVDKVVIEDTLVILKLANICGKACMKLLDRCKEIIVKSNVDMVSLEKSLPEELVKEIIDRRKELGLEVPKVKKHVSNVHKALDSDDIELVKLLLKEDHTNLDDACALHFAVAYCNVKTATDLLKLDLADVNHRNPRGYTVLHVAAMRKEPQLILSLLEKGASASEATLEGRTALMIAKQATMAVECNNIPEQCKHSLKGRLCVEILEQEDKREQIPRDVPPSFAVAADELKMTLLDLENRVALAQRLFPTEAQAAMEIAEMKGTCEFIVTSLEPDRLTGTKRTSPGVKIAPFRILEEHQSRLKALSKTVELGKRFFPRCSAVLDQIMNCEDLTQLACGEDDTAEKRLQKKQRYMEIQETLKKAFSEDNLELGNSSLTDSTSSTSKSTGGKRSNRKLSHRRR [C150Y] | disrupting interaction
8 | MDTTIDGFADSYEISSTSFVATDNTDSSIVYLAAEQVLTGPDVSALQLLSNSFESVFDSPDDFYSDAKLVLSDGREVSFHRCVLSARSSFFKSALAAAKKEKDSNNTAAVKLELKEIAKDYEVGFDSVVTVLAYVYSSRVRPPPKGVSECADENCCHVACRPAVDFMLEVLYLAFIFKIPELITLYQRHLLDVVDKVVIEDTLVILKLANICGKACMKLLDRCKEIIVKSNVDMVSLEKSLPEELVKEIIDRRKELGLEVPKVKKHVSNVHKALDSDDIELVKLLLKEDHTNLDDACALHFAVAYCNVKTATDLLKLDLADVNHRNPRGYTVLYVAAMRKEPQLILSLLEKGASASEATLEGRTALMIAKQATMAVECNNIPEQCKHSLKGRLCVEILEQEDKREQIPRDVPPSFAVAADELKMTLLDLENRVALAQRLFPTEAQAAMEIAEMKGTCEFIVTSLEPDRLTGTKRTSPGVKIAPFRILEEHQSRLKALSKTVELGKRFFPRCSAVLDQIMNCEDLTQLACGEDDTAEKRLQKKQRYMEIQETLKKAFSEDNLELGNSSLTDSTSSTSKSTGGKRSNRKLSHRRR [H334Y] | disrupting interaction
